# According to paper PMC4385108, “Characterization of the Kluyveromyces marxianus strain DMB1 YGL157w gene product as a broad specificity NADPH-dependent aldehyde reductase” (AMB Express, 2015):
# B1: KmGRE2 (YGL157w gene product) (Kluyveromyces marxianus) (protein)
# chain: MTYVVVTGASGYLAQHVIKQLLERNYKVIGTVRNQQKAKDIAKLFQNDNLTLELVPDLLQADVFDDLFLKYTGQIKHVIHTASPCRFDTTEYENEMLLPAINGTKRVLESIKKYASETVETVVYTSSVSALANPAGILDSNLTLTEESWNPDSFEDGKKDVFSAYYVSKTFAERTAWDFWKENKDQVKFQLTTICPSYIFGPQAFEENAKGTLNFSTEIVNKILHSKPGDELDKNFAGAFVDVRDVARAHVLALEKPELKSKRLVLLNDVYALQDVADYINKHFPELRGKIATGVPGEGKEIVKYIAHYDNSKTKKLLGFEFISFGQAITDTVAQILKANN
# notes: monomer, about 36 kDa by gel filtration, 40 kDa by SDS-PAGE
# Tests used:
# purified protein [1] = substrate: CC(=O)C=O; assay: purified protein; format: biochemical, Kluyveromyces marxianus; conditions: 100 mM acetate pH 5.5, 25°C, 0.2 mM NADPH
# purified protein [2] = substrate: NC(=O)C1=CN([C@@H]2O[C@H](COP(=O)(O)OP(=O)(O)OC[C@H]3O[C@@H](n4cnc5c(N)ncnc54)[C@H](OP(=O)(O)O)[C@@H]3O)[C@@H](O)[C@H]2O)C=CC1; assay: purified protein; format: biochemical, Kluyveromyces marxianus; conditions: 100 mM acetate pH 5.5, 25°C, co-substrate methylglyoxal (5 mM in the standard assay), kcat unit as printed, presumably min^−1, varied: cofactor
protein,measurement,setting,value
B1,Km,purified protein [1],300 ± 18 µM
same,kcat,purified protein [1],1.3 × 10^3 ± 15 min^−1
same,Km,purified protein [2],28 ± 1.2 µM
